# What was measured:
# [1] = test system: T1, OMNI-39 (Butyrivibrio sp. AC2005); assay: cleavage_in_vitro; conditions: TXTL; PAM NNGHAD (specific NNGYAA)
# T1 sequence: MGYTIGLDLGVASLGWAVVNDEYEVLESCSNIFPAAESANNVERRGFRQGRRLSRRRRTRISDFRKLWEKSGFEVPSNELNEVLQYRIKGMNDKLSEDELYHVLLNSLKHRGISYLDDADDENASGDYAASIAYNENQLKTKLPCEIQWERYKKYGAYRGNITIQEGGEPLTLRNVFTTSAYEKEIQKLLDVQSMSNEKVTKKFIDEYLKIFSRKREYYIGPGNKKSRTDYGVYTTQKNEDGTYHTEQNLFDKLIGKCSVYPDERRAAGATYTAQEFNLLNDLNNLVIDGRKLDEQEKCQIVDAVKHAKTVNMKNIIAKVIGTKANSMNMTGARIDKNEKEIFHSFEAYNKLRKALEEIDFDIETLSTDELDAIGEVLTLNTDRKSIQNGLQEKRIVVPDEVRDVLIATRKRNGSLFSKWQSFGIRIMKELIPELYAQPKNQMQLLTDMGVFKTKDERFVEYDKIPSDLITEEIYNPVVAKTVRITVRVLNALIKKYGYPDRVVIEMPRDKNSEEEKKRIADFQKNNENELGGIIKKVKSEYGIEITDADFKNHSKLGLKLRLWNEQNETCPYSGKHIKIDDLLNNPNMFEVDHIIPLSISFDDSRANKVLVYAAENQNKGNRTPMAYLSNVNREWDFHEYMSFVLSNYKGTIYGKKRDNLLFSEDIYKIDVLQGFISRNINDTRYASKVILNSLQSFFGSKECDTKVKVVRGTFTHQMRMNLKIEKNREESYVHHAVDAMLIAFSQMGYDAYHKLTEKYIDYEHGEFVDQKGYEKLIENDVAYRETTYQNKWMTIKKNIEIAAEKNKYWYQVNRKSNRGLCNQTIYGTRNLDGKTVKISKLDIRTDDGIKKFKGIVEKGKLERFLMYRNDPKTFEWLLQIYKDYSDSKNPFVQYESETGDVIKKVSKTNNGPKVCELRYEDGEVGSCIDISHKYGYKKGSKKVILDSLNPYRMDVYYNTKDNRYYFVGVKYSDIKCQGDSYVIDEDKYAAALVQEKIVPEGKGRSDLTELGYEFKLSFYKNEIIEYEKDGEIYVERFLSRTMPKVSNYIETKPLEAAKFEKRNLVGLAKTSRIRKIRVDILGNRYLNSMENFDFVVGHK
# [2] = test system: T1, OMNI-39 (Butyrivibrio sp. AC2005); assay: cell_activity; conditions: E. coli plasmid depletion; PAM NNGYAD (specific NNGYAA)
# [3] = test system: T2, OMNI-36 (Blastopirellula marina); assay: cleavage_in_vitro; conditions: TXTL; PAM NNYCCC; V1, V2 tested
# T2 sequence: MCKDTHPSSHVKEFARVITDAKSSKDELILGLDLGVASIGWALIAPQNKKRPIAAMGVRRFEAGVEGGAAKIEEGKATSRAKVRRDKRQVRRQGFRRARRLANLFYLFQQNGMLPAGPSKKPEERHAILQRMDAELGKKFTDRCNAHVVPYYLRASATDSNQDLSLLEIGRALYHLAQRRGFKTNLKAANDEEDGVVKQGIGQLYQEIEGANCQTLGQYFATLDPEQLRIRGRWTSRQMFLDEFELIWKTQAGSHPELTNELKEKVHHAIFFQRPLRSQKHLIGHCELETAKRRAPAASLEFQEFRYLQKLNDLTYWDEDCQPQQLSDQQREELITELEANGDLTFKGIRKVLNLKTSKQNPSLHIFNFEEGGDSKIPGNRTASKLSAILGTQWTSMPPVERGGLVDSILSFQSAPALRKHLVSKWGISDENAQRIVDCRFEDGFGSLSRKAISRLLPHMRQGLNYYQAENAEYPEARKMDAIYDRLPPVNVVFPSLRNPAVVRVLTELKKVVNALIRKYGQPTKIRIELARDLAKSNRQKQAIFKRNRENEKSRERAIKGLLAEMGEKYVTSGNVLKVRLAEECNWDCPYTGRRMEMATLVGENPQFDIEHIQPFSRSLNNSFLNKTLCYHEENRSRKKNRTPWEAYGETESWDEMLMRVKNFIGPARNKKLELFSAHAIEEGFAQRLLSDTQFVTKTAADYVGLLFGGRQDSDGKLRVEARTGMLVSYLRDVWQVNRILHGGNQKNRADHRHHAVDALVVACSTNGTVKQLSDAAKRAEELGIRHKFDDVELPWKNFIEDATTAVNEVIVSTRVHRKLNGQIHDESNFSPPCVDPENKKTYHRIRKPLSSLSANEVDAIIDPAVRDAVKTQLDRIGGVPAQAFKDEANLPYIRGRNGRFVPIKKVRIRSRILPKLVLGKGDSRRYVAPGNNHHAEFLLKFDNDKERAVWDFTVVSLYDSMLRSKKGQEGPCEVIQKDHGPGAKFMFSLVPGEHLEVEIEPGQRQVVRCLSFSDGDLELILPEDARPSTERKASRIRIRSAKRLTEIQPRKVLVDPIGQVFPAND
# [4] = test system: T3, OMNI-40 (bacterium LF-3); assay: cleavage_in_vitro; conditions: TXTL; PAM NYGRV
# T3 sequence: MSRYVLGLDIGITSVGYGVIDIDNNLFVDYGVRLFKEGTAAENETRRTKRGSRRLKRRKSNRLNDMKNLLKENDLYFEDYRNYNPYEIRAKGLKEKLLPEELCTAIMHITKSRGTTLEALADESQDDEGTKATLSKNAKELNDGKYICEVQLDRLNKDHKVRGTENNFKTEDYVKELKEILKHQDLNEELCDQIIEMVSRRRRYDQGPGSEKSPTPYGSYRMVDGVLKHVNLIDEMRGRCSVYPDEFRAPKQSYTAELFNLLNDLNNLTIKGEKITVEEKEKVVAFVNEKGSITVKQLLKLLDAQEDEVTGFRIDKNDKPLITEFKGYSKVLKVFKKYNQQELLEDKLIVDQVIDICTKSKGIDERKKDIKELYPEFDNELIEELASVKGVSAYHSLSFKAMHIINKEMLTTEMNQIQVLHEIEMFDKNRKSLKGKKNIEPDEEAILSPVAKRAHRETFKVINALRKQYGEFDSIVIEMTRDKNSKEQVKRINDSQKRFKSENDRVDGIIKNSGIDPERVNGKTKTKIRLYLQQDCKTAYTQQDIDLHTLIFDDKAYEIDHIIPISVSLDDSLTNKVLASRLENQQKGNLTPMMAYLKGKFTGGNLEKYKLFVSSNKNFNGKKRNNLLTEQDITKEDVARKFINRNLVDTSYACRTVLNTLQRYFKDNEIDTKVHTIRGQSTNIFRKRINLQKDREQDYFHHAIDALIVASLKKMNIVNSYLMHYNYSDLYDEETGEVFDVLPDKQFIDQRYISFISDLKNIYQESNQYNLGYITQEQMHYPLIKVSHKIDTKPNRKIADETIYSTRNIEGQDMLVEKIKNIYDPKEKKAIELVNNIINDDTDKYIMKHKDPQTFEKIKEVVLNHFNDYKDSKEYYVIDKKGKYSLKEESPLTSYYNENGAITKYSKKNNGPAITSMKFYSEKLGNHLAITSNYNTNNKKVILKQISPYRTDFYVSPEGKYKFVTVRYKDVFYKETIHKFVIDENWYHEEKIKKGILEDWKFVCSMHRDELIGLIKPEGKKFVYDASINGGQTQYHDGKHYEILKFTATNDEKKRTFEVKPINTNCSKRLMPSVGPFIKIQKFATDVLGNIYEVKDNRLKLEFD
# [5] = test system: T3, OMNI-40 (bacterium LF-3); assay: cell_activity; conditions: E. coli plasmid depletion; PAM NYGRV (specific NYGAV)
# [6] = test system: T4, OMNI-53 (Clostridium sp. AF02-29); assay: cleavage_in_vitro; conditions: TXTL; PAM NRHR (specific NAWA)
# T4 sequence: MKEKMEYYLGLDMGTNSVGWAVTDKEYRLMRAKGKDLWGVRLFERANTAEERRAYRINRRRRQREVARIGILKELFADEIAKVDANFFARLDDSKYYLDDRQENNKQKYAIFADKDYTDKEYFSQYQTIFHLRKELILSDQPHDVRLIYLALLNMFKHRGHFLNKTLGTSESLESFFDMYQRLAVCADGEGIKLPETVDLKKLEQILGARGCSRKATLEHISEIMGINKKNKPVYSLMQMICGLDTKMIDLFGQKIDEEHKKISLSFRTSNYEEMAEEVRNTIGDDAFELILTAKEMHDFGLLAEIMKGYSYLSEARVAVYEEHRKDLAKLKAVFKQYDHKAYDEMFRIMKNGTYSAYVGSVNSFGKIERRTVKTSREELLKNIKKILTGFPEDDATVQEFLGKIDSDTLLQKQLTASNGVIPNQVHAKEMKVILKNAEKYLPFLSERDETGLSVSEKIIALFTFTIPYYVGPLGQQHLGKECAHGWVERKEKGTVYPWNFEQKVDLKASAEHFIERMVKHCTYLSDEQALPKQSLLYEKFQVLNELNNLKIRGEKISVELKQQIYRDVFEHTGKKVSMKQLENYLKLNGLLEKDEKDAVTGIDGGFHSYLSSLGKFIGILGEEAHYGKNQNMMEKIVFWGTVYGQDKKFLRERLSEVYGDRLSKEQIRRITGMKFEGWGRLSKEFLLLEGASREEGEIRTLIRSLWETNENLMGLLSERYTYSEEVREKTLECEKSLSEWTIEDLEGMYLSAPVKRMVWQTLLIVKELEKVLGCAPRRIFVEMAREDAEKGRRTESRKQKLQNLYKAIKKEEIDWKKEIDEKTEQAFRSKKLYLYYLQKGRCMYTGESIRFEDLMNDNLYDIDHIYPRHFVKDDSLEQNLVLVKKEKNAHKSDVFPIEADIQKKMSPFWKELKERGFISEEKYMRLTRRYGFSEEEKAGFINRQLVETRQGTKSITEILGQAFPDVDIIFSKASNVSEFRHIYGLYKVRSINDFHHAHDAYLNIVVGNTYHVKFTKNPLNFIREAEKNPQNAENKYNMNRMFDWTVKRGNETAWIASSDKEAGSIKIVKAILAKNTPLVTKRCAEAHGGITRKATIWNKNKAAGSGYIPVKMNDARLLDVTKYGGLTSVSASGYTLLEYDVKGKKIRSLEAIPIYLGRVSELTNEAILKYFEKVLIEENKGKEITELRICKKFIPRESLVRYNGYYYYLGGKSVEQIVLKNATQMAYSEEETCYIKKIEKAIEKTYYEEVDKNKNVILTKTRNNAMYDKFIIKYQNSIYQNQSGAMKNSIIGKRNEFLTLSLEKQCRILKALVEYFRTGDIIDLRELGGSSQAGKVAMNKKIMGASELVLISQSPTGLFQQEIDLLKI
# [7] = test system: T4, OMNI-53 (Clostridium sp. AF02-29); assay: cell_activity; conditions: E. coli plasmid depletion; PAM NRTA
sequence,measurement,setting,value
GGAAGAGCAGAGCCUUGGUCUCGUUUUAGUACCUAGAGAAAGAAAUUUCUUUAGACCUACUAAAAUAAGGCUUUAUGCCGAGAUUAAAGGAUGCCGACGGGCAUCCUUUUUU / GGAAGAGCAGAGCCTTGGTCTCNNNNNNNN / NNNNNNNNGAGACCAAGGCTCTGCTCTTCC [OMNI-39 T2 sgRNA V2 ; pbPOS T2 protospacer 8N PAM library],activity (1-depletion score),[1],0.95
same,activity (1-depletion score),[2],0.99
GGAAGAGCAGAGCCUUGGUCUCGCUGUGGCUUGGAGGGAAUCGUGAAAACGAUUGCUUCGCAAGUCAUAGUAAAGCAAUAGUCAGCGAAAGGUUUGCUCACGGAGCAUUCCGUCGAGUACCCUUUGACGCCUCCCAGCGGGGCGUCUUUUUUU / GGAAGAGCAGAGCCTTGGTCTCNNNNNNNN / NNNNNNNNGAGACCAAGGCTCTGCTCTTCC [OMNI-36 T2 sgRNA V1 ; pbPOS T2 protospacer 8N PAM library],activity (1-depletion score),[3],0.99
GGAAGAGCAGAGCCUUGGUCUCGUUUUGUUACCAUAUGAUUGAAAAUUUAUAUGACCUAACAAAACAAGGGUUUAUCCCGGACUCGGCUCUUCGGAGCCUUUUU / GGAAGAGCAGAGCCTTGGTCTCNNNNNNNN / NNNNNNNNGAGACCAAGGCTCTGCTCTTCC [OMNI-40 T2 sgRNA V2 ; pbPOS T2 protospacer 8N PAM library],activity (1-depletion score),[4],0.97
same,activity (1-depletion score),[5],0.95
GGAAGAGCAGAGCCUUGGUCUCGUUUGAGAACCAUGGAAACAUGGUGAGUGCAAAUAAGGAUUAUCCGAAAUUGUAUGCCCGCAUUGUGCGGCAAUAAAAAGGCUCGAAAGAGUCUUUUU / GGAAGAGCAGAGCCTTGGTCTCNNNNNNNN / NNNNNNNNGAGACCAAGGCTCTGCTCTTCC [OMNI-53 T2 sgRNA V1 ; pbPOS T2 protospacer 8N PAM library],activity (1-depletion score),[6],0.97
same,activity (1-depletion score),[7],1

# Reference: patent US20220213456
